The results in this text go back to PMC11602157, “ZNF512B binds RBBP4 via a variant NuRD interaction motif and aggregates chromatin in a NuRD complex-independent manner” (Nucleic Acids Research, 2024).

The subject of assay [1] is DNA (sequence derived from the mouse H19 promoter). Kind of assay: EMSA. In kind it is binding. The note with it: purified recombinant protein, unmethylated or methylated oligos, 300 ng salmon sperm DNA competitor. The protocol:
Expression and purification of recombinant His-ZNF512B protein was done as described ([32]). Briefly, pFastBac1 vectors were transformed into DH10Bac bacteria and viruses were generated according to the Bac-to-Bac™ Baculovirus Expression System Protocol (Invitrogen). Extracts were prepared 3 days after infection by washing the cells twice with ice cold PBS and incubation on ice for 10 min in hypotonic buffer (10 mM HEPES-KOH pH 7.9, 1.5 mM MgCl2, 10 mM KCl). After brief vortexing and centrifugation, the pellet (nuclei) was incubated for 20 min in hypertonic buffer (20 mM HEPES-KOH pH 7.9, 25% glycerol, 420 mM NaCl, 1.5 mM MgCl2, 0.2 mM EDTA). After centrifugation for 10 min at 16 000 × g the supernatant was stored at −20°C or directly used for electrophoretic mobility shift assays (EMSAs). Alternatively, the supernatant was purified by FPLC using the Äkta Start (Cytiva) via a His-Trap column (71502768) by standard procedures outlined in the instructions of the manufacturer.
EMSAs were performed as originally described ([34]) with the exception that 300 ng of salmon sperm DNA per reaction were used as an unspecific competitor. […]
(In general: In EMSA bound probe runs differently from free probe, usually more slowly.)

Assay [2] deals with 4xUAS-tk-luc reporter in HEK293T cells. Kind of assay: Luciferase reporter assay. In kind it is cell-based. The conditions noted are these: GAL fusion, 72 h, three biological replicates. The protocol: Per well of a 6-well plate, 1.5 × 10^5 HEK293T cells were seeded and transfected on the next day using 1 μg of 4xUAS-tk-luc reporter plasmid, 0.5 μg GAL expression vector and 0.5 μg pCMV-lacZ vector for normalization. Cells were directly lysed in well after 72 h with 200 μl Lysis buffer (25 mM Tris/Cl pH 7.5, 8 mM MgCl2, 1 mM EDTA, 1% Triton™ X-100, 15% glycerin, 1 mM DTT) for 15 min at RT. Supernatants were used to measure luciferase activity by mixing 100 μl 1:1 with 90 mg/L D-Luciferin/0.8 mM ATP and quantifying emitted light after 5 s incubation with an Orion L plate reader (Titertek-Berthold). Values were normalized to β-galactosidase activity by adding 5 μL supernatant to 900 μl LacZ buffer (50 mM Na2HPO4, 10 mM KCl, 0.1 mM MgSO4, pH 7) and 100 μl 4 g/L OPNG/0.1 M KPO4. When a color change of the mixture occurred, absorbance at 420 nm was measured.
(In general: A reporter such as luciferase makes a cellular process visible.)

Assay [3] has as its system FLAG-tagged ZNF512B. Kind of assay: Oligomerization: GFP-Trap IP and FLAG immunoblot. In kind it is binding. The conditions noted are these: co-transfection of GFP- and FLAG-tagged ZNF512B constructs, HeLaK cells. The method, then: Preparation of DNase-digested cell extracts and immunoprecipitation was performed using GFP-Trap® Magnetic Particles M-270 (Chromotek) following the manufacturer’s protocol. In brief, cells were incubated for 30 min on ice with RIPA buffer (10 mM Tris/Cl pH 7.5, 150 mM NaCl, 0.5 mM EDTA, 0.1% SDS, 1% Triton™ X-100, 1% deoxycholate) supplemented with DNase I (75 Kunitz U/ml, Thermo Fisher Scientific) and MgCl2 (2.5 mM). After centrifugation at 17 000 × g for 10 min at 4°C, lysate was transferred to a fresh tube and mixed with Dilution buffer (10 mM Tris/Cl pH 7.5, 150 mM NaCl, 0.5 mM EDTA). Lysate was then incubated with GFP-Trap® Magnetic Particles M-270 rotating for 1 h at 4°C. For peptide competition, lysate was incubated with peptide solution rotating for 1 h at 4°C before incubation with beads. After incubation, beads were washed three times with Wash buffer (10 mM Tris/Cl pH 7.5, 150 mM NaCl, 0.05% Nonidet™ P-40 Substitute, 0.5 mM EDTA), and precipitated proteins were eluted by boiling beads for 5 min in 2× SDS-sample buffer. Eluates were compared to input material via semi-dry western blotting. Details on applied antibodies and peptides are listed in the Supplementary Data.

For assay [4], the system named is NuRD complex members. Description: lf-qMS after GFP-Trap IP. In kind it is binding. The note with it: GFP-Trap IP vs GFP. The method, then: Preparation of Micrococcal nuclease (MNase)-digested nuclear extracts was performed as previously described ([15–17],[32]). Briefly, nuclei were isolated by incubation with PBS containing 0.3% Triton™ X-100 for 10 min at 4°C and washed in PBS, before being resolved in 500 μl freshly prepared Ex100 buffer (10 mM HEPES pH 7.6, 100 mM NaCl, 1.5 mM MgCl2, 0.5 mM EGTA, 10% glycerol, 10 mM β-glycerol phosphate, 1 mM Dithiothreitol (DTT), 2 mM CaCl2). Chromatin was then digested with 1.5 U MNase (sufficient for 4 × 10^7 cells, Sigma-Aldrich) for 20 min at 26°C. Digestion was stopped by adding 10 mM EGTA and transferring the sample to 4°C. […]
For label-free quantitative mass spectrometry (lf-qMS), precipitated proteins were eluted by incubation of beads with Elution Buffer (2 M urea, 50 mM Tris/Cl pH 7.5, 2 mM DTT, 20 μg/ml Trypsin Gold [Promega]) for 30 min at 37°C shaking at 1400 rpm in the dark. […]
After tryptic digest (see MNase IP), peptides were desalted on StageTips ([36]) and analysed by nanoflow liquid chromatography on an EASY-nLC 1000 system (Thermo Fisher Scientific) coupled online to a Q Exactive Plus mass spectrometer (Thermo Fisher Scientific). […]
The raw files were processed with MaxQuant ([37]) (version 1.6.5.0) against a human uniprot database (81194 entries). […] The match between run option and the LFQ quantitation were activated. […]

Residue numbers refer to the chain shown, from its start. Numbers in names are those of the source.

B1: His-ZNF512B: purified recombinant His-ZNF512B protein (protein, UniProt Q96KM6 1-892, looked up)
Zinc finger protein 512B: MTDPFCVGGRRLPGSSKSGPGKDGSRKEVRLPMLHDPPKMGMPVVRGGQTVPGQAPLCFDPGSPASDKTEGKKKGRPKAENQALRDIPLSLMNDWKDEFKAHSRVKCPNSGCWLEFPSIYGLKYHYQRCQGGAISDRLAFPCPFCEAAFTSKTQLEKHRIWNHMDRPLPASKPGPISRPVTISRPVGVSKPIGVSKPVTIGKPVGVSKPIGISKPVSVGRPMPVTKAIPVTRPVPVTKPVTVSRPMPVTKAMPVTKPITVTKSVPVTKPVPVTKPITVTKLVTVTKPVPVTKPVTVSRPIVVSKPVTVSRPIAISRHTPPCKMVLLTRSENKAPRATGRNSGKKRAADSLDTCPIPPKQARPENGEYGPSSMGQSSAFQLSADTSSGSLSPGSRPSGGMEALKAAGPASPPEEDPERTKHRRKQKTPKKFTGEQPSISGTFGLKGLVKAEDKARVHRSKKQEGPGPEDARKKVPAAPITVSKEAPAPVAHPAPGGPEEQWQRAIHERGEAVCPTCNVVTRKTLVGLKKHMEVCQKLQDALKCQHCRKQFKSKAGLNYHTMAEHSAKPSDAEASEGGEQEERERLRKVLKQMGRLRCPQEGCGAAFSSLMGYQYHQRRCGKPPCEVDSPSFPCTHCGKTYRSKAGHDYHVRSEHTAPPPEEPTDKSPEAEDPLGVERTPSGRVRRTSAQVAVFHLQEIAEDELARDWTKRRMKDDLVPETARLNYTRPGLPTLNPQLLEAWKNEVKEKGHVNCPNDCCEAIYSSVSGLKAHLASCSKGAHLAGKYRCLLCPKEFSSESGVKYHILKTHAENWFRTSADPPPKHRSQDSLVPKKEKKKNLAGGKKRGRKPKERTPEEPVAKLPPRRDDWPPGCRDKGARGSTGRKVGVSKAPEK
modifications: His tag
notes: purified recombinant His-ZNF512B protein
In the case of B1, in assay [1], the DNA binding result is on record as “DNA-binding protein (Figure 2F), independent of DNA methylation status”.

B2: K423A: GAL-ZNF512B with K423A mutation, loss of NuRD binding (protein)
chain: B1 Zinc finger protein 512B with K423A
modifications: left off: GFP, end not stated, kept
On to B2, for which the “repression of luciferase reporter” value in assay [2] is on record as “over 50%”.

B3: ZNF512B: zinc finger protein 512B; GAL-ZNF512B in the reporter assay, GFP-/FLAG-tagged in pull-downs (protein)
chain: B1 Zinc finger protein 512B
modifications: left off: GFP, end not stated, kept
Regarding B3, the oligomer formation entry in assay [3] is “able to form oligomers that are strictly dependent on the ZF domains”. In addition, in assay [2], the “repression of luciferase reporter” value was “strong repression effect”. The “binding to NuRD complex members by lf-qMS” value in assay [4] was “NIM-dependent binding of ZNF512B to all known NuRD complex members was observed”.
